Experimental data taken from paper PMC5361195.

B1: Flag-tagged wild-type A2 domain of coagulation factor VIII (pED-Flag-A2) [human] / calreticulin [not stated (endogenous in COS-1 or HEK293T cells)] (parent)
chain 1: KTWVHYIAAEEEDWDYAPLVLAPDDRSYKSQYLNNGPQRIGRKYKKVRFMAYTDETFKTREAIQHESGILGPLLYGEVGDTLLIIFKNQASRPYNIYPHGITDVRPLYSRRLPKGVKHLKDFPILPGEIFKYKWTVTVEDGPTKSDPRCLTRYYSSFVNMERDLASGLIGPLLICYKESVDQRGNQIMSDKRNVILFSVFDENRSWYLTENIQRFLPNPAGVQLEDPEFQASNIMHSINGYVFDSLQLSVCLHEVAYWYILSIGAQTDFLSVFFSGYTFKHKMVYEDTLTLFPFSGETVFMSMENPGLWILGCHNSDFRNRGMTALLKVSSC
chain 2: EPAVYFKEQFLDGDGWTSRWIESKHKSDFGKFVLSSGKFYGDEEKDKGLQTSQDARFYALSASFEPFSNKGQTLVVQFTVKHEQNIDCGGGYVKLFPNSLDQTDMHGDSEYNIMFGPDICGPGTKKVHVIFNYKGKNVLINKDIRCKDDEFTHLYTLIVRPDNTYEVKIDNSQVESGSLEDDWDFLPPKKIKDPDASKPEDWDERAKIDDPTDSKPEDWDKPEHIPDPDAKKPEDWDEEMDGEWEPPVIQNPEYKGEWKPRQIDNPDYKGTWIHPEIDNPEYSPDPSIYAYDNFGVLGLDLWQVKSGTIFDNFLITNDEAYAEEFGNETWGVTKAAEKQMKDKQDEEQRLKEEEEDKKRKEEEEAEDKEDDEDKDEDEEDEEDKEEDEEEDVPGQAKDEL

Variants of: B1
Assay: co-immunoprecipitation (anti-Flag IP, immunoblot densitometry)
Settings: with calreticulin [not stated (endogenous in COS-1 or HEK293T cells)]; 36 h after transfection; n = 3; parent: 1; read off a plot

Row | ratio to parent | Variant
1 | 0.92 | chain 1 N203D
2 | 2.3 | chain 1 S205T
3 | 2.2 | chain 1 D201H
4 | 1.1 | chain 1 D201V
